Experimental data reported in article PMC8424595 (The Journal of Biological Chemistry, 2021).
Where no end group is shown, it is not given here. fluorescein = fluorescein label at the N-terminus

Legend:
[1] = target: Ssa1 (Saccharomyces cerevisiae, UniProt P10591); test: fluorescence polarization, displacement of ATP-FAM; format: binding; details: 50 uM ATP, 1 uM Ssa1, 20 nM ATP-FAM, pH 7.5, 25 °C
[2] = target: T1, Msi3 (Candida albicans, UniProt Q96VB9); test: limited trypsin digest; format: binding; details: 1 mM ATP, pH 7.5, 10 mM Mg(OAc)2, 25 °C
T1 sequence (Q96VB9 1-701): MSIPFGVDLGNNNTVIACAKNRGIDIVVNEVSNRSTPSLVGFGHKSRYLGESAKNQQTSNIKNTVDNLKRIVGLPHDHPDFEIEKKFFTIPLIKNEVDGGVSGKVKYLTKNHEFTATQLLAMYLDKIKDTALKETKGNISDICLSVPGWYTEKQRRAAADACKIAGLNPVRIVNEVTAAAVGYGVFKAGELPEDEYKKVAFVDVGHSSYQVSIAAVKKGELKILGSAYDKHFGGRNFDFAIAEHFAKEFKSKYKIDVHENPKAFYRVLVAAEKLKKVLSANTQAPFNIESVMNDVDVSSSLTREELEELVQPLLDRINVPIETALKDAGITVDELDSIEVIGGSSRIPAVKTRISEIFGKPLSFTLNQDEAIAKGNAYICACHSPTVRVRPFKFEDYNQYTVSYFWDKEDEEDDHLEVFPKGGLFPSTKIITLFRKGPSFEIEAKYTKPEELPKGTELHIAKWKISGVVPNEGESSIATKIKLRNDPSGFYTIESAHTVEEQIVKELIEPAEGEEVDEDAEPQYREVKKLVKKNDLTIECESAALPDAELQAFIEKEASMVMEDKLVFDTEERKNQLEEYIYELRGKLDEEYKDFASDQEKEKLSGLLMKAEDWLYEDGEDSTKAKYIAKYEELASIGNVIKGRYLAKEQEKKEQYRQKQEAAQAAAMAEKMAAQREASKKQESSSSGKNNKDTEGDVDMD

[3] = target: Msi3-Ssa1 complex (Candida albicans | S. cerevisiae, UniProt Q96VB9 1-701; P10591 1-642); test: native gel or EMSA
Sequence of Msi3-Ssa1 complex (P10591 whole entry, one chain of several): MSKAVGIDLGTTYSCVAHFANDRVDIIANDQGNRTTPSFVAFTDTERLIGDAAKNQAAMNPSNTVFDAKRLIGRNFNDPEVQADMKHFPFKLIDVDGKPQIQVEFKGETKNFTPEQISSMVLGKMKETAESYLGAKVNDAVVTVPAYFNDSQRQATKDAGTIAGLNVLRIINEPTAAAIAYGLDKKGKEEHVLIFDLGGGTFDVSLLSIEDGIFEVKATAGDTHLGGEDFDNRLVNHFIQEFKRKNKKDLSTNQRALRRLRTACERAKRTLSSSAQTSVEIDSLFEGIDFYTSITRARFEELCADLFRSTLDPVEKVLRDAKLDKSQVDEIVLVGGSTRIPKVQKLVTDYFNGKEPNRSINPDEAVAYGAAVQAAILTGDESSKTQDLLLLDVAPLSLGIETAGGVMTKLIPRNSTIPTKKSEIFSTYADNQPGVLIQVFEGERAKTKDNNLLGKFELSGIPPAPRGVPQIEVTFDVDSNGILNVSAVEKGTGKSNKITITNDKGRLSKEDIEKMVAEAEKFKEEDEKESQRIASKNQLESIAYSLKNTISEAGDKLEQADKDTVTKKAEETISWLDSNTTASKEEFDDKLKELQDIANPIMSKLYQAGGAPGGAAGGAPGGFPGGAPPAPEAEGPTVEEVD

[4] = target: Ssa1, the major Hsp70 in the cytosol of S. cerevisiae (S. cerevisiae, UniProt P10591 1-642); test: native gel or EMSA
Sequence of Ssa1, the major Hsp70 in the cytosol of S. cerevisiae (P10591 whole entry): as the sequence (P10591 whole entry, one chain of several) above

[5] = target: T2, Msi3, the sole Hsp110 in Candida albicans, wild type (Candida albicans, UniProt Q96VB9 1-701); test: fluorescence polarisation
T2 sequence (looked up): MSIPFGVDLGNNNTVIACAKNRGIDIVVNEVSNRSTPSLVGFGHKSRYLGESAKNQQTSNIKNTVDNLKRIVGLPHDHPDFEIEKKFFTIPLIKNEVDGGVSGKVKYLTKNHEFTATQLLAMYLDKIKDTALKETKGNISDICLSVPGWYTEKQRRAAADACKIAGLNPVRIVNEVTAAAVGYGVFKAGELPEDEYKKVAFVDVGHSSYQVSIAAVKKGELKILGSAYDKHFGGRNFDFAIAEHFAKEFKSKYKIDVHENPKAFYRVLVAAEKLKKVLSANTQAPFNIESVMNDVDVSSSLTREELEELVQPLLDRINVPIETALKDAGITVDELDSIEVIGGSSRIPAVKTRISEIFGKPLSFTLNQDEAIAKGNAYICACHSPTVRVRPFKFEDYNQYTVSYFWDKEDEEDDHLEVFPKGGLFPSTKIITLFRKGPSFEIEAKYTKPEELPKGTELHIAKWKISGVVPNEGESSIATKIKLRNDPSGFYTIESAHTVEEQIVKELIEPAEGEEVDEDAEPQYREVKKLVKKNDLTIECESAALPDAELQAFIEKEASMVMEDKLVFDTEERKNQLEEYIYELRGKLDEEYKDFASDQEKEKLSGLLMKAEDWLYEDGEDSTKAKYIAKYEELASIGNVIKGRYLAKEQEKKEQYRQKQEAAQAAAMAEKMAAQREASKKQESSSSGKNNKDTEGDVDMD

[6] = target: T3, Msi3 I164D (Candida albicans, UniProt Q96VB9 1-701, I164D); test: fluorescence polarisation
T3 sequence (looked up): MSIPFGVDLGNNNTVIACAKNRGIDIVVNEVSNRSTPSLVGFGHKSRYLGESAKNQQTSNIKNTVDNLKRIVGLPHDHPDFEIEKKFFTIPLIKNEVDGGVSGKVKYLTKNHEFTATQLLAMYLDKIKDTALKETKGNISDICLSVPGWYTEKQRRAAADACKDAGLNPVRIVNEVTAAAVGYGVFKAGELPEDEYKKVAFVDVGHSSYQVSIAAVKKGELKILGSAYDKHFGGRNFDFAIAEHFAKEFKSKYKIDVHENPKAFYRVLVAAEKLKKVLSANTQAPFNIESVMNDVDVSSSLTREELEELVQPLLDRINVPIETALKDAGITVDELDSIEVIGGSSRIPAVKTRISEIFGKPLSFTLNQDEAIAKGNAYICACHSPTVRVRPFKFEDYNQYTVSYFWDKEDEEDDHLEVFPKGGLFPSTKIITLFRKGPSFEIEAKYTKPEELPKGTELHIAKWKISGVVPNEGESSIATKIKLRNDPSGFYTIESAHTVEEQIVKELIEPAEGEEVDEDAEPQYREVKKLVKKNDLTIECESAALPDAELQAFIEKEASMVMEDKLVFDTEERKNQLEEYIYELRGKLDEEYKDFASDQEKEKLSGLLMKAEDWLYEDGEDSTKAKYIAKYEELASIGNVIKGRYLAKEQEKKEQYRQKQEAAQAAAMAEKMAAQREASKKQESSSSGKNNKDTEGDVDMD

[7] = target: T4, Msi3 R235E (Candida albicans, UniProt Q96VB9 1-701, R235E); test: fluorescence polarisation
T4 sequence (looked up): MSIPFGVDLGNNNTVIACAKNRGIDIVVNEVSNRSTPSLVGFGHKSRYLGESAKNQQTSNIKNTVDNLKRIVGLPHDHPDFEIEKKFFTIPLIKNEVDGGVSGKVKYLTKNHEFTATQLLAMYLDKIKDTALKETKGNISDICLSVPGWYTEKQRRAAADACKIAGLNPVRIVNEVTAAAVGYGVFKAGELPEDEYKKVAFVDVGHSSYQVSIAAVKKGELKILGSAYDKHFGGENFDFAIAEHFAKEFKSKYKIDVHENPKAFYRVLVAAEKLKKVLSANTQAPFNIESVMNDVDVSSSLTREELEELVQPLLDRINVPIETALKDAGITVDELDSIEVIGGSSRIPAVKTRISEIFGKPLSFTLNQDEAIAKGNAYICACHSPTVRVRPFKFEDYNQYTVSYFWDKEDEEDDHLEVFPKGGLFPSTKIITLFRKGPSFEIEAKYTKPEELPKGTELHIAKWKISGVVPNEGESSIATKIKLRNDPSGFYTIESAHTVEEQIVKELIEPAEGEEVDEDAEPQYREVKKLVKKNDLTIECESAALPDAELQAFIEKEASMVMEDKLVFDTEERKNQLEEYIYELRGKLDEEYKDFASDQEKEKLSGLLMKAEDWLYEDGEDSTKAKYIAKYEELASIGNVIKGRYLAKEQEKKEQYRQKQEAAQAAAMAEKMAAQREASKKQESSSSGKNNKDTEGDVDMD

Sequence of Ssa1 (P10591 2-642): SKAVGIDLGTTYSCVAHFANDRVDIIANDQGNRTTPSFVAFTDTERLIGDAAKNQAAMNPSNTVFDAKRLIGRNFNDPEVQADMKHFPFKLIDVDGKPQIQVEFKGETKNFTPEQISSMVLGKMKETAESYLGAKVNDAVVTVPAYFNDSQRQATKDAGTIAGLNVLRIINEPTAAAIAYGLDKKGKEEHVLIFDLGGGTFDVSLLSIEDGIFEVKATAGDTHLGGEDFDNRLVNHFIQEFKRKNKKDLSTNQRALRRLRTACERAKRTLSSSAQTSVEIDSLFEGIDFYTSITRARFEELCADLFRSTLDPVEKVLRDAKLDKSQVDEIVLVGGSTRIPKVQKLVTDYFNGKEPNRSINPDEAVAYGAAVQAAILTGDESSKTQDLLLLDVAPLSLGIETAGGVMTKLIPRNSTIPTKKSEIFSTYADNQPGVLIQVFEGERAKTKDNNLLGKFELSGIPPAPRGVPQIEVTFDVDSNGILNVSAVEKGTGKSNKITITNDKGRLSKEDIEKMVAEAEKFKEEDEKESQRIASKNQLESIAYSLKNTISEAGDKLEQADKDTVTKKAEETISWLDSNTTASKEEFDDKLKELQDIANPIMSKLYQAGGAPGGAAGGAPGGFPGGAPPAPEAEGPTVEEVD

Which results are given for `Nc1ncnc2c1ncn2[C@@H]1O[C@H](COP(=O)(O)OP(=O)(O)OP(=O)(O)O)[C@@H](O)[C@H]1O` [ATP]?
fluorescence polarization, displacement of ATP-FAM [1]: the bound ATP-FAM was slowly replaced by the unlabeled ATP; limited trypsin digest (ATP-induced conformational change) [2]: two signature proteolytic bands were observed in the presence of ATP for the WT Msi3

B1: NR peptide (peptide)
peptide: fluorescein-NRLLLTG
What does the source list for B1?
binding result [3]: binds; binding result [4]: binds

B2: TRP2_181 peptide (peptide)
peptide: fluorescein-VYDFFVWLHYY
Does B2 bind [5]?
Result: binds

Does B2 bind [6]?
Result: binds

Does B2 bind [7]?
Result: binds
